Laboratory results reported in the supplement of paper PMC12042874.
± gives the uncertainty stated by the source.

Experiment: amyloid nucleation score (Sup35N fusion, yeast selection) (log enrichment); library NNK1; higher = more nucleation; inactive = no reads after selection
Summary of the method: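 The nucleation score is a DiMSum log enrichment of output over input reads, centred on the mode score of non-aggregating sequences. Sequences under 100 input reads were excluded, and reads came from Illumina sequencing of plasmid inserts. Psi-negative yeast expressing Sup35N fused to peptides of 20 random codons were induced with 100 μM copper sulfate for 24 hours and grown 7 days at 30°C on medium lacking adenine and uracil. Random libraries had three technical output replicates.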

Substance	amyloid nucleation score
DFCVPHGNCFLA	-0.747 ± 0.48
YSDPYAKWNDQR	0.784 ± 0.76
YYLSLMYSTLYRTKIFWARE	-0.077 ± 0.79
LWLWHELHAIYMGMRGVSVL	inactive
SYRSYGSSSCSVWRTAAGDQ	2.9 ± 0.084
RWFYSCDVVAFKGH	0.584 ± 0.84
ISFCDGRSCIDLIAVRCFRG	-0.909 ± 0.26
GSRHFRDSVLSDVNVWYLKN	-0.026 ± 0.35
DLMGSWYDLRYMKGLKGK	-0.265 ± 0.13
TDVSVKLSVMMH	1.53 ± 0.16
ISGLNV	-0.372 ± 0.51
VWSGEE	-0.344 ± 0.38
LGLGDGLLVRFNKFCGLMGR	-0.153 ± 1.2
AGMCSIC	0.155 ± 0.36
MHTKRTTDNKYGSY	-0.208 ± 0.38
TFLGLAGSHCLFSFVANSAR	1.24 ± 0.28
GLMWKAN	0.537 ± 0.67
GTKNLCDYIWPGPPGSVVRN	-0.159 ± 0.56
KMGWLRH	-0.566 ± 0.5
TRYGVYQYVVDSLINCHLLE	-0.186 ± 0.52
NVQVKWGQTRVTCWDYGGEH	0.467 ± 0.34
CDRLIKVSYRFIGAADRRWM	1.35 ± 0.76
MTHLNPMSFVDPKFVPVDFS	2.48 ± 0.47
TGKDLRAEHENFVARNHFPM	-0.954 ± 1.4
DRPTRLSVIFGRPP	inactive

Substance	amyloid nucleation score
MCGDIPQ	0.35 ± 0.74
THAVREFWDLGGVNEENYGW	inactive
VGLLSISLMYQRTASTGYFS	0.615 ± 0.28
VCRGGSSFLLNTKLVNT	0.675 ± 0.33
MWVYFVLCKKVAEGVCFIDT	0.996 ± 0.61
GTFVEISRYIDGCHLVFGNR	2.38 ± 0.16
FKLWQVFRKSSMFQRGWGIG	0.462 ± 0.78
NRKAPFNQA	-1.09 ± 1.4
YRFFCCVGHITSFVFLVGNV	5.25 ± 0.054
GTGHVFQCCRMTLLQSSLDG	-0.832 ± 0.88
FDKFKNSTVREFMWVEFSVG	0.745 ± 0.74
CFWRNFDRGEAS	0.94 ± 0.97
QQSQC	inactive
VVLPRLRGNLVCDEIES	2.07 ± 0.53
VFESIVNGQVMMTLN	-1.92 ± 2.4
PGKRHGFMLRDFAMPKLSYH	-0.918 ± 0.59
NSGRVNTLWFCLSDTMLVTS	inactive
GFLTSSIYRSLAVQLNQSWW	0.078 ± 0.32
TRRSRFW	1.45 ± 0.35
YRSFCFRWWISSGCAGLRGS	0.489 ± 0.67
VLYSELLGFRKSIIIMVWTR	-0.015 ± 0.28
VSKSYPIPCISKVS	0.336 ± 0.52
LRAWMSVASDNGLLMFCRNH	-0.324 ± 0.46
CFRHRYRQLGIMWWGLRLQL	-1.44 ± 2.4
WRMVAIWKNLD	-0.013 ± 0.56

Substance	amyloid nucleation score
MIMMDLHCGVILRALGEHGP	3.34 ± 0.11
VRSCTWCGSEGPGTIPWLGD	0.443 ± 0.39
YMASEG	inactive
NMCNLSFLQ	0.104 ± 1.1
YNWVGIDRMGFYTFSVGLVC	-0.375 ± 0.38
ADTCGCGWDSRRKCFMGGYS	-0.187 ± 0.52
RWYSHFSAMQWGATLCFWGL	2.64 ± 0.11
FHLVRGCIFITCKYVGRGIV	1.32 ± 0.57
GLVIELNPFKSLLSSPWVFF	0.335 ± 0.71
KDVLVRFMYLG	-0.21 ± 0.68
ICITYL	2.56 ± 0.12
LHLPYGCTASAICQFECSGW	3 ± 0.15
CTREVLWGCHCNSSASNLFS	-0.202 ± 0.61
QGSIHY	inactive
VVCARVLRWEVGYVFGKIER	inactive
SYVKDNISVSGADILTGAIC	-0.367 ± 0.48
FVVRCDYVVLTLDSGDRSYV	3.37 ± 0.071
AYAGLRCVGSDVIAGKTVAN	0.684 ± 1.2
SRATSYKFSTGRCCWTGTVK	0.072 ± 0.91
MFVGGRTNTQMYHMDVVPFQ	1.13 ± 0.63
NNINWVKGKHR	-1.06 ± 2.4
GRMLLM	-1.25 ± 1.1
CYNTRVPFGMPLKRTPYRSR	-0.509 ± 1.1
NFLCFGFFRWTVPDWAQFYV	3.76 ± 0.12
LDGFSVNLCWFRHTERCVAC	-0.224 ± 0.78

Substance	amyloid nucleation score
LWPDTDPIGGE	-0.74 ± 1.1
LFAIKYCDVSD	0.286 ± 0.43
RRREKHAMDPELRARGQQ	-0.106 ± 0.73
NFSLIFENMIALFPYPARKR	7.742 ± 0.056
KKFRVGVDLSRCTLGLENYK	4.3 ± 0.059
GMAHDWSRQWVRVSDAVLLR	-0.004 ± 0.6
LARCRWLVKRVCDGNWCCML	0.569 ± 0.48
GSSENRFF	inactive
MCWPTDAEDAICTSLK	2.12 ± 0.11
NFVIFKRFFNFHKNWNGWSR	3.8 ± 0.07
FNITYCFRSFSTSVDNGF	0.436 ± 0.55
GCLNDCGSLVWYGVCKSCLP	0.446 ± 0.6
NKSHAHLKVAMSLVCPFKSH	1.5 ± 0.44
KVVTGLIYFWCIWCFGTLRV	0.431 ± 0.9
VIFSNWVTAGFACFMHLLVR	0.398 ± 0.9
EVRSQSNEYHLRNWCVYK	1.31 ± 0.23
LGYKSGVFLWGFRFHP	-1.35 ± 2.1
CFPRSRRRQRSFNLCVRESR	1.13 ± 0.57
RYRSVVIPRVHAIEVIYAAC	-0.378 ± 0.97
RFQTGPTLCSPQTEWPVLLN	0.987 ± 0.56
SHVGSYSWVCSRLARIGCER	-0.703 ± 0.46
SRTICGSEILTSKKTRFHAS	-0.702 ± 1.7
SVESYTKAISIYTIGERIVL	-0.004 ± 1.6
IDFKGTKKLLSDRAPVGDST	0.549 ± 1
RLVEQFRGMLLWY	-0.673 ± 0.64

Substance	amyloid nucleation score
LCLFGSWLKKLKYNRFLFVG	-1.18 ± 1.7
HITMRLFTPYLTYNMPMSLK	0.063 ± 0.24
DFNSISDAKNCWSYLM	1.25 ± 0.13
MLQFFVSWGILVKICVWTVG	inactive
SFCVRQSTVFLMMSWECFRY	1.19 ± 0.8
LLLNTLLWSL	-1.83 ± 2.7
FFTRGIVMQRRQHWNGVYGS	0.737 ± 0.49
SGYSLASVVILLKAVYCLGW	0.627 ± 0.72
ATRSMEAIIMRELWYIDPVY	0.831 ± 0.87
LFREQW	0.228 ± 0.85
NTTATLMGHTQPIYSIYSVF	1.11 ± 0.94
SIMNISVAYCGSM	3.67 ± 0.14
HILYKRFFFGSCSSGCHL	-0.428 ± 0.47
LYKLWQSKFTVYWLEGLTSY	inactive
GRMAGMFWNCGGCMEMDSVC	1.14 ± 0.68
HFVAVFMFYGWPSWYSYSES	-0.93 ± 0.35
TLTDSN	-0.221 ± 0.53
VIVHIWRET	3.92 ± 0.11
SLLCYRRGSWGEYIMFNGRL	-0.366 ± 0.84
GIPSKTFDVCSSPNIKSILF	0.317 ± 1.2
SFYYWHPIALVSMVYK	5.89 ± 0.073
SQIYTFVDLFLSS	1.26 ± 0.68
LMDIGPANEKFN	-1.18 ± 1.4
NFVQLAWLVRWAWEV	-0.088 ± 0.56
SYECVQNRQCAIGGNRSERF	0.666 ± 0.93

Substance	amyloid nucleation score
AAMCLLIWRACRISVDMHMC	-0.205 ± 0.27
YKWLLAGGNTKCSKVRNAYW	-0.356 ± 0.39
GGKAIIQCLEW	-0.362 ± 1.2
GLPLYVHVAVEVIWL	0.058 ± 0.65
CDGLLYELRSVEWGKGKLNG	0.438 ± 0.38
TYGDGEAE	inactive
TVAFSVTTVDR	-0.875 ± 2.4
ITFLLRSFRVHS	inactive
EDKYFA	0.323 ± 0.69
DWSSRVFPGSLGTKAGSHA	-1.58 ± 1.4
LRDTFPVLLAILCMNIINNC	-0.14 ± 0.29
SRFWKRVHAYTAVISEMYSA	-0.132 ± 0.52
STVREFSVVGPYVTGSVAGR	0.383 ± 0.71
LTSGLI	0.807 ± 1
IHNNRVGVYCILNNTQRVE	0.2 ± 0.61
KRVANDWEYGFGYNPTVVGR	0.295 ± 0.46
ADCFCNRFNVICVKHYGSAR	0.159 ± 0.42
LIKGWSYPGVPCVGLLMDGK	0.27 ± 0.33
EGWPTSTLSLSRYALLGSPR	-0.486 ± 0.66
MLVCDWKTDLGNI	0.811 ± 0.64
CPPSYLMT	-0.464 ± 0.45
AFPPYRIFADRLYMSSPGPA	0.961 ± 0.69
YISKSCRWSRTASSNVCIFI	0.022 ± 0.33
NDTVWVVWMLKELSLYVELV	0.329 ± 0.53
GKENSVTGHRGYSDVAVGMQ	0.286 ± 1.4

Substance	amyloid nucleation score
HLYLRITTVG	1.49 ± 0.76
KFVWVIAVDVDSRCKFCCGS	0.354 ± 0.82
CDEGWEESNSTD	-0.522 ± 1.6
SLVALINNCSVSTKMGSLPY	0.87 ± 0.22
DRMKTQGFCQTFNFWLGYYI	6.97 ± 0.075
PDWCLMVLLCGLVCIYVDLN	0.22 ± 1.1
IINVLC	3.73 ± 0.056
LLAFYSVTFVSRWILQCYML	-0.498 ± 0.36
SNLWFL	-0.213 ± 0.28
LTFNPLTGCNNSQWFDGISG	-1.23 ± 2.1
KSQVVMRDVEPATNIV	-0.153 ± 0.69
HECRWRTVYNQ	0.786 ± 0.93
NKCIAKDGDMES	-0.015 ± 0.23
SRPNDMFTALVYTCYLPNK	-0.539 ± 0.6
MPKRSKHFVNWVVNA	-0.265 ± 0.29
WNRVWIMYGT	1.57 ± 0.22
LGPNW	-0.356 ± 0.53
CFMETYSWKVRYTLFHKLST	0.552 ± 0.79
NHYGSVAGLPPNNHWVSFCV	-0.373 ± 0.99
FGYNILYINQSTWLLNFCQV	6.56 ± 0.049
MWNRFWLLDALLWGNYLSQS	0.043 ± 0.33
FTSVITLMFNYNTFWKKSSY	1.12 ± 0.27
